In paper PMC5429695:

Legend:
[1] = biological target: RfDoc1a, group 1a dockerin, thioredoxin A fusion, wild type (R. flavefaciens FD-1); assay: ITC; 308 K; dockerin in the cell (stirred at 307 revolutions/min) titrated with 28 injections of 10 uL cohesin at 220 s intervals; proteins in 50 mM HEPES pH 7.5, 0.5 mM CaCl2, 0.5 mM TCEP; single-site model
[2] = biological target: RfDoc1b, group 1b dockerin, thioredoxin A fusion, wild type (R. flavefaciens FD-1); assay: as above

Substance	Ka [1]	dH [1]	stoichiometry N [1]	Ka [2]	dH [2]	stoichiometry N [2]
RfCohScaA, ScaA cohesin with C-terminal hexa-histidine tag (domain or fragment)	5.03e+08 M⁻¹	-38.9 kcal/mol	1	2.67e+07 M⁻¹	-61.2 kcal/mol	1
RfCohScaB3 E84A + H121A, C-terminal hexa-histidine tag (domain or fragment)	1.65e+06 M⁻¹	-66.9 kcal/mol	1	–	–	–
RfCohScaB3 E84A + N124A, C-terminal hexa-histidine tag (domain or fragment)	1.53e+07 M⁻¹	-55 kcal/mol	1	–	–	–
RfCohScaB3 E84A, C-terminal hexa-histidine tag (domain or fragment)	3.62e+07 M⁻¹	-55.5 kcal/mol	1	–	–	–
RfCohScaB3 H121A + N124A, C-terminal hexa-histidine tag (domain or fragment)	2.28e+06 M⁻¹	-46.4 kcal/mol	1	–	–	–
RfCohScaB3 H121A, C-terminal hexa-histidine tag (domain or fragment)	2.66e+07 M⁻¹	-52.6 kcal/mol	1	–	–	–
RfCohScaB3 K77A, C-terminal hexa-histidine tag (domain or fragment)	4.23e+08 M⁻¹	-57.4 kcal/mol	1	–	–	–
RfCohScaB3 L79A, C-terminal hexa-histidine tag (domain or fragment)	7.59e+06 M⁻¹	-51.9 kcal/mol	1	–	–	–
RfCohScaB3 N68A, C-terminal hexa-histidine tag (domain or fragment)	1.1e+08 M⁻¹	-58.6 kcal/mol	1	–	–	–
RfCohScaB3 N75A + E84A, C-terminal hexa-histidine tag (domain or fragment)	2.08e+07 M⁻¹	-51.8 kcal/mol	1	–	–	–
RfCohScaB3 N75A + H121A, C-terminal hexa-histidine tag (domain or fragment)	2.49e+06 M⁻¹	-50.8 kcal/mol	1	–	–	–
RfCohScaB3 N75A + N124A, C-terminal hexa-histidine tag (domain or fragment)	1.86e+06 M⁻¹	-56.3 kcal/mol	1	–	–	–
RfCohScaB3 N75A, C-terminal hexa-histidine tag (domain or fragment)	9.09e+07 M⁻¹	-52.7 kcal/mol	1	–	–	–
RfCohScaB3 N124A, C-terminal hexa-histidine tag (domain or fragment)	5.54e+07 M⁻¹	-52.8 kcal/mol	1	–	–	–
